From article PMC7351598 come the findings set out here.

Where two headings read alike, the source gives them in different places.

Holding throughout (assay): MST
For assay [1], the target named is 6xHis-MBP-SpyCas9 (Streptococcus pyogenes) (UniProt Q99ZW2).
Assay [2] has the same target. This is another data set of the same source.
For assay [3], the target named is 6xHis-MBP-SpyCas9(D10A) (Streptococcus pyogenes) (UniProt Q99ZW2).
Assay [4] deals with 6xHis-MBP-SpyCas9(H840A) (Streptococcus pyogenes) (UniProt Q99ZW2).
Assay [5] addresses 6xHis-MBP-deadSpyCas9 (Streptococcus pyogenes) (UniProt Q99ZW2).
For assay [6], the target named is Cas9-gRNA prebound to AcrIIA2b.3 (Streptococcus pyogenes | not stated) (UniProt Q99ZW2).

With AcrIIA2b.3 (natural protein), the Kd (as a rule, the concentration at which binding is half-saturated) in assay [1] was determined as 0.02 µM.
On to AcrIIA1 (natural protein), for which the equilibrium dissociation constant (Kd) in assay [2] was 0.031 µM; in assay [1] it was 0.023 µM; in assay [3], 0.038 µM; in assay [4], 2 µM; in assay [5] it was 0.905 µM; in assay [6] it was 0.024 µM.
